Drawing on doi:10.1101/2021.03.22.436508, this text covers stoichiometry N and stoichiometry N (ParD2 per ParE2 (printed as 6:2)) for two substances.

Assay [1] concerns the target Vibrio cholerae ParD2 antitoxin (Vibrio cholerae biovar El Tor strain N16961). As to the kind of experiment: crystal structure.
In assay [2] the target is Vibrio cholerae ParE2 toxin with C-terminal histidine tag (Vibrio cholerae biovar El Tor strain N16961). As to the kind of experiment: crystal structure.
Assay [3] shares this target. As to the kind of experiment: SEC-MALS.
Assay [4] concerns the target Vibrio cholerae ParD2 antitoxin (Vibrio cholerae biovar El Tor strain N16961). As to the kind of experiment: native MS.
Assay [5] addresses Vibrio cholerae ParE2 toxin with C-terminal histidine tag (Vibrio cholerae biovar El Tor strain N16961). As to the kind of experiment: native MS.
In assay [6] the target is Vibrio cholerae ParD2 antitoxin (Vibrio cholerae biovar El Tor strain N16961). As to the kind of experiment: crystal structure. This is another data set of the same source.
Assay [7] deals with Vibrio cholerae ParE2 toxin with C-terminal histidine tag (Vibrio cholerae biovar El Tor strain N16961). As to the kind of experiment: SAXS.
Assay [8] deals with Vibrio cholerae ParD2:ParE2 6:2 hetero-octameric complex (Vibrio cholerae biovar El Tor strain N16961). As to the kind of experiment: native MS.

Regarding “Vibrio cholerae ParD2 antitoxin (natural protein)”, the stoichiometry N (as a rule, the number of molecules, sites or subunits per partner or assembly) is 2 in assay [1], 2 in assay [4] and 6 in assay [6]. Besides, the stoichiometry N (ParD2 per ParE2 (printed as 6:2)) in assay [2], in assay [3], in assay [5] and in assay [7] was 3 in each case.
As to “Vibrio cholerae ParD2:ParE2 6:2 hetero-octameric complex”, the stoichiometry N in assay [8] stood at 2.
